Values of other authors as cited in patent US7550436B2, “Compositions containing peptide and electrolyte excretion promoter and foods containing the same” (Kracie Pharma, Ltd., priority 2000, dated 2009).
No end group written: not given here.

biological target: angiotensin converting enzyme (Homo sapiens, UniProt P12821); conditions: reported in JP-B-60-23085, JP-B-61-51562, JP-B-61-51564, JP-B-5-21092
Sequence (P12821 30-1306, species assumed): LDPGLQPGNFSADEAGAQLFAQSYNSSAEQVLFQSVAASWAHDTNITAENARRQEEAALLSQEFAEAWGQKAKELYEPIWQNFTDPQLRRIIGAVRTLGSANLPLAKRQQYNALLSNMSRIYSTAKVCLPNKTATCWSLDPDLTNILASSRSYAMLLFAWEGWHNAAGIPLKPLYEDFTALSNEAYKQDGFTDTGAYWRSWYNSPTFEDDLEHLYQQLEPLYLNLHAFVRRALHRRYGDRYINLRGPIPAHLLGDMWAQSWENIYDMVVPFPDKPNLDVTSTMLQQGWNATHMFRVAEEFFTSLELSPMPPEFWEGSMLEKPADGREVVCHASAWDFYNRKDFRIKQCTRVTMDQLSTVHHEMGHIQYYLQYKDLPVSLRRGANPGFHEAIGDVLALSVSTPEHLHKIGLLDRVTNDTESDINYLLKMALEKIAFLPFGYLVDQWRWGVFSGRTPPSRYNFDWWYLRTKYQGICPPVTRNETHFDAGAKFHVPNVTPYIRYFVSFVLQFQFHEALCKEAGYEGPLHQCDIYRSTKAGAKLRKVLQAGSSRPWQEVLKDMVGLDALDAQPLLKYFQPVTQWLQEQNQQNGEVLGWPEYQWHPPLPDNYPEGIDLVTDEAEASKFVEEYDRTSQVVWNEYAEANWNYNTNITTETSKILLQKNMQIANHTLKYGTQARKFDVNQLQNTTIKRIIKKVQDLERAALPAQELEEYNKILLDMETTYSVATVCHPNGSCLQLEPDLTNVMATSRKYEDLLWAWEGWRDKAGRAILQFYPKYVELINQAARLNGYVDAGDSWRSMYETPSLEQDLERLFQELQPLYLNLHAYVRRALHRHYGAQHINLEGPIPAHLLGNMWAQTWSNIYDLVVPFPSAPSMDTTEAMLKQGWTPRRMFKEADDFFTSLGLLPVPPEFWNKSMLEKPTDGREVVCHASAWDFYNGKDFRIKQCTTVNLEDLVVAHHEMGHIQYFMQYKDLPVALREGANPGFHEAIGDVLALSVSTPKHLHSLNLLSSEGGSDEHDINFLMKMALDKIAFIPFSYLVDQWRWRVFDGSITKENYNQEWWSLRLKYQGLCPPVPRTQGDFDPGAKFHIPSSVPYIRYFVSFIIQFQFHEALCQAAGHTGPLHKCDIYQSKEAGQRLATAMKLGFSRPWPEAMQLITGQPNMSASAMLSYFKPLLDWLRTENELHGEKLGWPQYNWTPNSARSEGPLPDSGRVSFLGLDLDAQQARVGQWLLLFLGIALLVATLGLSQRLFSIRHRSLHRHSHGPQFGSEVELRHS

**Q.** Which “inhibitory activity to angiotensin converting enzyme (ACE)” value (shortened to “inhibitory activity”) does the source give for “AVPYPQR [Cβ7, ID No. 2, casein-origin peptide]” here?
**A.** inhibitory activity

**Q.** For “FFVAPFPEVFGK [Example C12, ID No. 1, casein-origin peptide]”, which “inhibitory activity” value is on record?
**A.** inhibitory activity

**Q.** Which “inhibitory activity” value does the source give for “TTMPLW [Example C6, ID No. 3, casein-origin peptide]” here?
**A.** inhibitory activity
